Measured values reported in CN111138527A (INST MILITARY MEDICINE ACADEMY MILITARY SCIENCES PLA, dated 2020).

Target: 截短型抗原蛋白GPdM (Ebola virus (EBOV), UniProt Q05320 33-632)
Assay: ELISA on coated truncated GP

B1: 抗埃博拉病毒糖蛋白GP1亚基的单克隆抗体4F1 (antibody, V domains shown)
VH: EVQLVESGGGLVQPGGSLRLSCAASGFSFRIYDMHWVRQVTGRGLEWVSAIGSASDTYYRDSVKGRFTISRENAKNSLYLQMNSLRAGDTAVYYCARASFGELMFDLWGQGTLVTVSS
VL: DIQMTQSPSSLSLSPGERATLSCRASQSVGSSLAWYQQKPGQAPRLLIYAASSRATGFPDRFSGSGSGTDFTLTISRLEPEDFAVYYCQQYGGSPLTFGGGTKVEIKT
Q: For B1, which EC50 is on record?
A: 6.9 ng/mL
